In patent EP4631959A2, “NOVEL MINIGASTRIN-DERIVED CHOLECYSTOKININ 2 RECEPTOR BINDING MOLECULES FOR IMAGING AND TARGETED RADIOTHERAPY” (priority 2022, dated 2024):
Like-named read-outs stand apart in the source and are kept apart here. Starred links: 1 amine or outer side, 2 acyl side, 3 side chain; linkers in the order of their positions; H or OH if unused. Non-standard residues stand in square brackets, D forms with d. Residues, ends and D or L forms follow the SMILES beside them. *: point of attachment. DOTAGA = O=C(O)CN1CCN(CC(=O)O)CCN(C(CCC(=O)*)C(=O)O)CCN(CC(=O)O)CC1; Benzoyl(4-SiFtBu2) = CC(C)(C)[Si](F)(c1ccc(C(=O)*)cc1)C(C)(C)C; X1 = CC(C)(C)[Si](F)(c1ccc(C[N+](C)(C)CC(=O)*)cc1)C(C)(C)C; DOTA = O=C(O)CN1CCN(CC(=O)O)CCN(CC(=O)*)CCN(CC(=O)O)CC1; PEG12 = NCCOCCOCCOCCOCCOCCOCCOCCOCCOCCOCCOCCOCCC(=O)O; d(γGlu) = O=C(O)[C@@H](CCC(=O)[*:2])N[*:1]; 1Nal = N[C@@H](Cc1cccc2ccccc12)C(=O)O; PEG5 = NCCOCCOCCOCCOCCOCCC(=O)O; NMeNle = CCCC[C@H](NC)C(=O)O; PEG4 = NCCOCCOCCOCCOCCC(=O)O; Nle = CCCC[C@H](N)C(=O)O; dDap = NC[C@@H](N)C(=O)O

Columns and labels:
CCK-2R = molecular target: T1, CCK-2R (Rattus norvegicus, UniProt P30553); assay: Determination of IC50: CCK-2R affinity on AR4-2J cells, competition with [^177Lu]Lu-DOTA-PP-F11N; assay type: binding; conditions: AR4-2J cells
T1 construct: The CCK-2R expressing rat pancreatic tumor cells AR4-2J; host or cells: AR4-2J rat pancreatic tumor cells
T1 sequence (P30553 1-452): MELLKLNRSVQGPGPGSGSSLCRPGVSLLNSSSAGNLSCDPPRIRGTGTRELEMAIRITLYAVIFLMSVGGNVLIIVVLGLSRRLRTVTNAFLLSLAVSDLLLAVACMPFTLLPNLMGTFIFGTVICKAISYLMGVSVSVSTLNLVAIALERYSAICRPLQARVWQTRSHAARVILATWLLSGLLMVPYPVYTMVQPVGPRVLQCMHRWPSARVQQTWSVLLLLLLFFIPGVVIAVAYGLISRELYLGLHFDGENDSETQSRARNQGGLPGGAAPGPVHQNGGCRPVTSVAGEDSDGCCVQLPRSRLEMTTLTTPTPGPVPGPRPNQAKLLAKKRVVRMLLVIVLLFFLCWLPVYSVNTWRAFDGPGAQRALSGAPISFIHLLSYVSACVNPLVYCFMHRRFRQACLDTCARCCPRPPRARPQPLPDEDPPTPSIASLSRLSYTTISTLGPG
In short: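 Competitive displacement of 0.3 pmol/well [177Lu]Lu-DOTA-PP-F11N by compounds (10^-10 to 10^-4 M) on AR4-2J cells in BSA-supplemented medium, 3 h at 37 °C. Free label was collected from medium plus PBS rinse, and cell-bound label was recovered with 1 M NaOH, both measured by γ-counter. Each IC50 was determined twice, in triplicate.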

[1] = n-Octanol-PBS distribution coefficient (logD7.4); assay type: physicochemical; conditions: pH = 7.4, ^177Lu-labeled
Protocol: Approximately 1 MBq of the labeled tracer was dissolved in 1 mL of a 1/1 mixture (v/v) of phosphate buffered saline (PBS, pH = 7.4) and n-octanol in an Eppendorf tube (1.5 mL). After vigorous mixing of the suspension for 3 min at rt, the vial was centrifuged at 9,000 rpm for 5 min (Biofuge 15, Heraeus Sepatech, Osterode, Germany) and 200 µL aliquots of both layers were measured in a γ-counter. The experiment was repeated at least five times.

[2] = molecular target: T2, Human serum albumin (HSA) (Homo sapiens, UniProt P02768); assay: Determination of HSA binding on a Chiralpak HSA column; assay type: in vitro ADME; conditions: Tab. 8; metal not stated (Fig. 18: ^natLu)
T2 construct: purchased Daicel, Tokyo, Japan H13H-2433
Protocol: Human serum albumin (HSA) binding of the CCK-2R-targeted compounds was determined as reported by Valko et al., using a Chiralpak HSA column (50 x 3 mm, 5 µm, H13H-2433, Daicel, Tokyo, Japan) at a constant flow rate of 0.5 mL/min at rt. Therefore, an aq. solution of NH4OAc (pH = 6.9, 50 mM) as mobile phase A and isopropanol as mobile phase B were freshly prepared. In order to calibrate the column prior to the experiments, the retention times of nine reference substances with a HSA binding in the range of 13 to 99% were determined using a gradient of 100% A (0 to 3 min), followed by 80% A (3 to 40 min). Furthermore, all substances tested, were dissolved in a mixture (1/1, v/v) of A and B reaching a final concentration of 0.5 mg/mL. The HSA binding of all rhCCK ligands tested, was determined using the same gradient as for the calibration probes. The non-linear regression of the calibration experiments and the CCK-2R ligands (Fig. 29) was established using the OriginPro 2016G software (Northampton, United States).

[3] = ^natLu-labeled, read-out: IC50 [nM] (n = 3), ^natLu-labeled
[4] = read-out: IC50 [nM] (n = 3), ^natLu-labeled, ^natLu-labeled

T2 sequence (P02768 25-609): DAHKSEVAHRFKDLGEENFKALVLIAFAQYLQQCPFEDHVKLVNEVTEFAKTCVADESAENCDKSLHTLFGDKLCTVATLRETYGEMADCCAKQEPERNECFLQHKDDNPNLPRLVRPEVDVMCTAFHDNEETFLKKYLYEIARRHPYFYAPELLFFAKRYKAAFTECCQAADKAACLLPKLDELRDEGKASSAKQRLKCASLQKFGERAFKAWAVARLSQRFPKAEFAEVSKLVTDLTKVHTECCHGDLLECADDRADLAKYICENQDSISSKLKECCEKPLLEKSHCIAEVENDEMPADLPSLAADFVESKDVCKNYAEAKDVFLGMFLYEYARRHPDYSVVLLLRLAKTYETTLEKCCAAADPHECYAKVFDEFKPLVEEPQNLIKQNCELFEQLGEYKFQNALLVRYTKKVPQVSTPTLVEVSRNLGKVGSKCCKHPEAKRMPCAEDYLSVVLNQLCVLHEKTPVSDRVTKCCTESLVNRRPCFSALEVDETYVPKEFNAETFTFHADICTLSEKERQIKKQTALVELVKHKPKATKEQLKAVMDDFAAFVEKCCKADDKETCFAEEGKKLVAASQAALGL

SMILES	IC50 (CCK-2R; [3])	logD7.4 (n ≥ 5), ^177Lu-labeled [1]	HSA binding [%] [2]	IC50 (CCK-2R; read-out: IC50 [nM] (n = 3), ^natGa-labeled, ^natGa-labeled)	logD7.4 (n ≥ 5), ^177Lu-labeled ([1]; listed as [^nat/177Lu]Lu-DOTA-rhCCK-75)	IC50 (CCK-2R; [4])
CCCC[C@@H](C(=O)N[C@@H](CC(=O)O)C(=O)N[C@@H](Cc1cccc2ccccc12)C(N)=O)N(C)C(=O)[C@H](Cc1c[nH]c2ccccc12)NC(=O)CCOCCOCCOCCOCCNC(=O)CC[C@@H](NC(=O)CCOCCOCCOCCOCCOCCNC(=O)[C@@H](CNC(=O)C[N+](C)(C)Cc1ccc([Si](F)(C(C)(C)C)C(C)(C)C)cc1)NC(=O)CN1CCN(CC(=O)O)CCN(CC(=O)O)CCN(CC(=O)O)CC1)C(=O)O [DOTA-rhCCK-90, DOTA-dap(SiFAlin)-(PEG)4-γ-glu-(PEG)3-Trp-(N-Me)Nle-Asp-1-Nal-NH2] ({DOTA}-[dDap](X1)[PEG5][d(γGlu)][PEG4]W[NMeNle]D[1Nal]-NH2)	9.85 ± 1 nM	−0.76 ± 0.09	94.5%			
CCCC[C@@H](C(=O)N[C@@H](CC(=O)O)C(=O)N[C@@H](Cc1cccc2ccccc12)C(N)=O)N(C)C(=O)[C@H](Cc1c[nH]c2ccccc12)NC(=O)CCOCCOCCOCCOCCNC(=O)CC[C@@H](NC(=O)CCOCCOCCOCCOCCOCCNC(=O)CC[C@@H](NC(=O)[C@@H](CNC(=O)c1ccc([Si](F)(C(C)(C)C)C(C)(C)C)cc1)NC(=O)CN1CCN(CC(=O)O)CCN(CC(=O)O)CCN(CC(=O)O)CC1)C(=O)O)C(=O)O [DOTA-rhCCK-68, DOTA-dap(SiFA)-γ-glu-(PEG)4-γ-glu-(PEG)3-Trp-(N-Me)Nle-Asp-1-Nal-NH2]	15.4 ± 1.1 nM	−1.65 ± 0.09	91.2%	36.9 ± 5.4 nM		
CCCC[C@@H](C(=O)N[C@@H](CC(=O)O)C(=O)N[C@@H](Cc1cccc2ccccc12)C(N)=O)N(C)C(=O)[C@H](Cc1c[nH]c2ccccc12)NC(=O)CCOCCOCCOCCOCCNC(=O)CC[C@@H](NC(=O)CCOCCOCCOCCOCCOCCOCCOCCOCCOCCOCCOCCOCCNC(=O)CC[C@@H](NC(=O)[C@@H](CNC(=O)C[N+](C)(C)Cc1ccc([Si](F)(C(C)(C)C)C(C)(C)C)cc1)NC(=O)CN1CCN(CC(=O)O)CCN(CC(=O)O)CCN(CC(=O)O)CC1)C(=O)O)C(=O)O [DOTA-rhCCK-75, DOTA-dap(SiFAlin)-γ-glu-(PEG)11-γ-glu-(PEG)3-Trp-(N-Me)Nle-Asp-1-Nal-NH2]	19.2 ± 1.6 nM	−1.15 ± 0.05	90.9%		-1.15 ± 0.05	
CCCC[C@H](NC(=O)[C@H](Cc1c[nH]c2ccccc12)NC(=O)CNC(=O)[C@H](Cc1ccc(O)cc1)NC(=O)[C@H](C)NC(=O)CC[C@@H](NC(=O)CC[C@@H](NC(=O)CC[C@@H](NC(=O)CC[C@@H](NC(=O)CC[C@@H](NC(=O)CC[C@@H](NC(=O)CC[C@@H](NC(=O)CCCNC(=O)[C@@H](CNC(=O)c1ccc([Si](F)(C(C)(C)C)C(C)(C)C)cc1)NC(=O)CN1CCN(CC(=O)O)CCN(CC(=O)O)CCN(CC(=O)O)CC1)C(=O)O)C(=O)O)C(=O)O)C(=O)O)C(=O)O)C(=O)O)C(=O)O)C(=O)N[C@@H](CC(=O)O)C(=O)N[C@@H](Cc1ccccc1)C(N)=O [DOTA-MG-SiFA-44, DOTA(-dap(SiFA)-GABA-(γ-glu)7-F11N]		−2.01 ± 0.07				3.47 ± 0.27 nM
CCCC[C@H](NC(=O)[C@H](Cc1c[nH]c2ccccc12)NC(=O)CNC(=O)[C@H](Cc1ccc(O)cc1)NC(=O)[C@H](C)NC(=O)[C@@H](CCC(=O)O)NC(=O)[C@@H](CCC(=O)O)NC(=O)[C@@H](CCC(=O)O)NC(=O)[C@@H](CCC(=O)O)NC(=O)[C@@H](CCC(=O)O)NC(=O)[C@@H](CNC(=O)c1ccc([Si](F)(C(C)(C)C)C(C)(C)C)cc1)NC(=O)[C@@H](CCC(=O)O)NC(=O)CCC(C(=O)O)N1CCN(CC(=O)O)CCN(CC(=O)O)CCN(CC(=O)O)CC1)C(=O)N[C@@H](CC(=O)O)C(=O)N[C@@H](Cc1ccccc1)C(N)=O (some centres unmarked) [DOTAGA-MG-SiFA-10, DOTAGA-glu-[dap(SiFA)^1]F11N] ({DOTAGA}-[dE][dDap](Benzoyl(4-SiFtBu2))[dE][dE][dE][dE][dE]AYGW[Nle]DF-NH2)		−2.22 ± 0.08				56.8 ± 6.4 nM
CCCC[C@H](NC(=O)[C@H](Cc1c[nH]c2ccccc12)NC(=O)CNC(=O)[C@H](Cc1ccc(O)cc1)NC(=O)[C@H](C)NC(=O)CC[C@@H](NC(=O)CC[C@@H](NC(=O)CC[C@@H](NC(=O)CC[C@@H](NC(=O)CC[C@@H](NC(=O)CC[C@@H](NC(=O)CC[C@@H](NC(=O)[C@@H](CNC(=O)c1ccc([Si](F)(C(C)(C)C)C(C)(C)C)cc1)NC(=O)CCC(C(=O)O)N1CCN(CC(=O)O)CCN(CC(=O)O)CCN(CC(=O)O)CC1)C(=O)O)C(=O)O)C(=O)O)C(=O)O)C(=O)O)C(=O)O)C(=O)O)C(=O)N[C@@H](CC(=O)O)C(=O)N[C@@H](Cc1ccccc1)C(N)=O (some centres unmarked) [DOTAGA-MG-SiFA-22, DOTAGA-dap(SiFA)-γ-glu-γ-F11N]		−2.16 ± 0.09				29.5 ± 1.9 nM
CCCC[C@@H](C(=O)N[C@@H](CC(=O)O)C(=O)N[C@@H](Cc1cccc2ccccc12)C(N)=O)N(C)C(=O)[C@H](Cc1c[nH]c2ccccc12)NC(=O)CNC(=O)[C@H](Cc1ccc(O)cc1)NC(=O)[C@H](C)NC(=O)CC[C@@H](NC(=O)CC[C@@H](NC(=O)CC[C@@H](NC(=O)CC[C@@H](NC(=O)CC[C@@H](NC(=O)CC[C@@H](NC(=O)CC[C@@H](NC(=O)CC[C@@H](NC(=O)[C@@H](CNC(=O)c1ccc([Si](F)(C(C)(C)C)C(C)(C)C)cc1)NC(=O)CN1CCN(CC(=O)O)CCN(CC(=O)O)CCN(CC(=O)O)CC1)C(=O)O)C(=O)O)C(=O)O)C(=O)O)C(=O)O)C(=O)O)C(=O)O)C(=O)O [DOTA-MG-SiFA-40, DOTA-dap(SiFA)-(γ-glu)8-MGS5]		−1.83 ± 0.04				8.27 ± 0.35 nM
CCCC[C@@H](C(=O)N[C@@H](CC(=O)O)C(=O)N[C@@H](Cc1cccc2ccccc12)C(N)=O)N(C)C(=O)[C@H](Cc1c[nH]c2ccccc12)NC(=O)CCOCCOCCOCCOCCOCCOCCOCCOCCOCCOCCOCCOCCNC(=O)CC[C@@H](NC(=O)CN1CCN(CC(=O)O)CCN(CC(=O)O)CCN(CC(=O)O)CC1)C(=O)O [DOTA-CCK-81, DOTA-γ-glu-(PEG)11-Trp-(N-Me)Nle-Asp-1-Nal-NH2] ({DOTA-d(γGlu)-PEG12}-W[NMeNle]D[1Nal]-NH2)	6.3 ± 0.7 nM	−2.47 ± 0.10				
CCCC[C@H](NC(=O)[C@H](Cc1c[nH]c2ccccc12)NC(=O)CNC(=O)[C@H](Cc1ccc(O)cc1)NC(=O)[C@H](C)NC(=O)[C@@H](CNC(=O)c1ccc([Si](F)(C(C)(C)C)C(C)(C)C)cc1)NC(=O)[C@@H](CCC(=O)O)NC(=O)[C@@H](CCC(=O)O)NC(=O)[C@@H](CCC(=O)O)NC(=O)[C@@H](CCC(=O)O)NC(=O)[C@@H](CCC(=O)O)NC(=O)[C@@H](CCC(=O)O)NC(=O)CCC(C(=O)O)N1CCN(CC(=O)O)CCN(CC(=O)O)CCN(CC(=O)O)CC1)C(=O)N[C@@H](CC(=O)O)C(=O)N[C@@H](Cc1ccccc1)C(N)=O (some centres unmarked) [DOTAGA-MG-SiFA-5, DOTAGA-glu-[dap(SiFA)^6]F11N] ({DOTAGA}-[dE][dE][dE][dE][dE][dE][dDap](Benzoyl(4-SiFtBu2))AYGW[Nle]DF-NH2)		−1.71 ± 0.10				629 ± 48 nM
